In paper PMC6692119 (Nature, 2017):

T1: Med17 (S. pombe Mediator subunit) (S. pombe, UniProt P87306 1-545)
T1 sequence (looked up): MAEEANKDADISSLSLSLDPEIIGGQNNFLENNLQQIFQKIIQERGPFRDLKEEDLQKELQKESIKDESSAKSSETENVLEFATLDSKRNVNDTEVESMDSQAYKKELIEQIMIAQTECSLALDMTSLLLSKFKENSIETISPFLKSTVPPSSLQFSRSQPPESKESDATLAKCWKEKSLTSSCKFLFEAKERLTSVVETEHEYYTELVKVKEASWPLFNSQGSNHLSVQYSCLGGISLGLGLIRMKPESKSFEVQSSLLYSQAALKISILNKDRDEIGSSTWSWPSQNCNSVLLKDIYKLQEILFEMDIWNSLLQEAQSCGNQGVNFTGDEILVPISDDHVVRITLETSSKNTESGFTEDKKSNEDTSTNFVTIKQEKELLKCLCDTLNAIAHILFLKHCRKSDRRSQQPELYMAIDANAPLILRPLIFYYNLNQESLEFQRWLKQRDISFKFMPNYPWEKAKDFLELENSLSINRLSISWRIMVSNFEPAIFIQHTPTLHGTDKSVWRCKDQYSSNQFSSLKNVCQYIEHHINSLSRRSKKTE

T2: Med14 (S. pombe Mediator subunit) (S. pombe, UniProt Q9P7Y4 1-879)
T2 sequence (looked up): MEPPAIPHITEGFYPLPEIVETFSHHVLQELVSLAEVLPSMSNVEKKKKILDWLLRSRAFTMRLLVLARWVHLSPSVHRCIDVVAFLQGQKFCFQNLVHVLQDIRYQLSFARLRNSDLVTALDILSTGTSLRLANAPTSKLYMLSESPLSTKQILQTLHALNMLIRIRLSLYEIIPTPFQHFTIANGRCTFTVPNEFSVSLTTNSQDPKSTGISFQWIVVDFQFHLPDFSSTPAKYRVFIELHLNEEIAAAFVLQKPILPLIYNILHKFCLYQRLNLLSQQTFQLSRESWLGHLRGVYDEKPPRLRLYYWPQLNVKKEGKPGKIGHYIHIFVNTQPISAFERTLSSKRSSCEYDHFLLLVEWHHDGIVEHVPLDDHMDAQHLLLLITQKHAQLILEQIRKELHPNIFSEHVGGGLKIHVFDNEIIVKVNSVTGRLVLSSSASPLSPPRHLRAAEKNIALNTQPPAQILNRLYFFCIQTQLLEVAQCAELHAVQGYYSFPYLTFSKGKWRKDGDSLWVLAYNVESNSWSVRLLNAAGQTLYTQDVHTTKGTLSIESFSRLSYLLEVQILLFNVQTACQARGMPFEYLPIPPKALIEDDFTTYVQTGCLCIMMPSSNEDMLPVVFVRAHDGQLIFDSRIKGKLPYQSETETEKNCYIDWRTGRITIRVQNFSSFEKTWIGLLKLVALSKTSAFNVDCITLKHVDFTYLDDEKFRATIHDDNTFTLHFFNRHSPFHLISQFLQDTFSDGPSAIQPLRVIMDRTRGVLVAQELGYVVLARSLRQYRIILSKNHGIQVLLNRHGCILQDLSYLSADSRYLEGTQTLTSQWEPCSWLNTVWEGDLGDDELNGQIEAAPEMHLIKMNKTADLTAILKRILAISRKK

T3: Med18 (S. pombe Mediator subunit) (S. pombe, UniProt O14198 1-207)
T3 sequence (looked up): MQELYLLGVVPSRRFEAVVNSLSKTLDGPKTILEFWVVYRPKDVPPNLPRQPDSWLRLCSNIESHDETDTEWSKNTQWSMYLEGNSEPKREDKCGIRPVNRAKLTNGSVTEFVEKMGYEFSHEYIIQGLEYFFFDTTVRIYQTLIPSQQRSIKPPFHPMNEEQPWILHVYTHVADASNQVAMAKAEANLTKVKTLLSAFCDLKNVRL

B1: Med7-TAP (S. pombe Mediator subunit) (natural protein, UniProt O60104 1-376, looked up)
chain: MEPNEGVQLFSAFPPPPPYYKLFTRENIEKVISNMEKEAKHEDDANTLQPKTEEEIESLAKLFKKPSCLTSGTYQMFGDTWRLDEAIPSLKEFGIPELYKDIKDGEDEIEVVEYDPKSNAIVGTSFTRVHDYDKNSPIENEKILEDDQHTAMKEKDNESDKTMKDVEEKTEPSLKKEEEDIQMKEPLDSQDTGAVSASSVNEGFRADQKSKDGETSDLIKIPRRAYELRFLSRSLMLNFLELLGIMAKAPEQFPSKVENIRVLLLNLHHLINDYRPHQSRESLIMLLEKQLKHEESQVELLRTHNRQMTETLEKYKSLDFNMEKEGDVIQQLKSSIKKPLSGAEDEQKSRSMFSKNDEKLKKSLELMEDVIKRDLS
B2: Med27 (S. pombe Mediator subunit) (natural protein, UniProt Q10477 1-273, looked up)
chain: MSLEEQRTRDELKHKLLDLNQLHEQLAELRTICPSLLKLLHPETGTSRKFEKSAQEAIEKVNSFYTHLKSSQNVFDYAEKSLQADSSNLLPTYLYNSEDLSNDTENNETKSINGKSALDLKEPHHSELHDNDNFQNSDINIESFKGDIEASGSILTTHENKSFTLKLANELEFIFFHDTRGKFSVYCSSSKDDAITFSINRNNNFLGNLWSLMPKILDYQHLYSKPCDFCKSLISPVYLELPSVRRNANSTVKPTSKDILALHAECVPAQSDL
B3: Med31 (S. pombe Mediator subunit) (natural protein, UniProt Q9USH1 1-139, looked up)
chain: METKWLLSKVPDDKSRFEIELEFVQMLSNPWYLNFLAQHKYFEDEAFLQYLEYMEYWREPEYVKFIIYPTCLHMLTLLKNPQFRNDISRADLSKQVNDEIYYEWLGKGLQQYGSADDATLSQPQQEEDEKKVDVKKENE
B4: Med20 (S. pombe Mediator subunit) (natural protein, UniProt Q10317 1-193, looked up)
chain: MPVHGVIYYSSPSMATFLSPAQDNLVRTYFAQHLKKWVVQYKLYRNAVTPKTLEFLKQNINPSMLACVDEATMIDAEPELEDIIVRTKLWNFRQSFTIEGSIYEVGSFKVAIANVLQKSVWKGILFHVTYDGTESVDLARPIIQEFFLKCFLQNNKSVTPVYESFFNQPRHSLDSKLLLQLFKQRIDTVSQRT

Legend:
Assay in all cases: cryo-EM structure
[1] = target: T1, Med17 (S. pombe Mediator subunit)
[2] = target: T2, Med14 (S. pombe Mediator subunit)
[3] = target: T3, Med18 (S. pombe Mediator subunit)

Row | Binder | binding result [1] | binding result [2] | binding result [3]
1 | B1 | binds | – | –
2 | B2 | binds | binds | –
3 | B3 | binds | – | –
4 | B4 | – | – | binds
